Paper PMC10835137 (2024)

T1: IRBP 271-290 (P2) peptide on I-A^b (mouse)
T1 peptide: QTWEGSGVLPCVG

B1: 1 (TCR)
alpha TRAV12D-3 TRAJ13 CDR3: CALRAGSGTYQRF
beta TRBV3 TRBJ2-7 CDR3: CASSLAGTGVYEQYF
B2: 4 (TCR)
alpha TRAV9-4 TRAJ31 CDR3: CAVSPHSNNRIFF
beta TRBV2 TRBJ2-7 CDR3: CASSQEGLGGLGEQYF
B3: 3 (TCR)
alpha TRAV16N TRAJ15 CDR3: CAMREGGGGRALIF
beta TRBV15 TRBJ2-3 CDR3: CASSWGRGAETLYF
B4: 5 (TCR)
alpha TRAV9-2 TRAJ31 CDR3: CVLSAGNNRIFF
beta TRBV20 TRBJ2-2 CDR3: CGASGPANTGQLYF
B5: 2 (TCR)
alpha TRAV12-2 TRAJ47 CDR3: CALSVYANKMIF
beta TRBV23 TRBJ2-4 CDR3: CSSSQTTNQNTLYF

Biological target: T1, IRBP 271-290 (P2) peptide on I-A^b
Assay: multimer staining

Binding result, recognises:
B1
B2
B3
B4
B5
